Laboratory results reported in paper PMC9559756.

Assays:
[1] = target: untagged-cpAQP1aa-243 (C-terminally truncated aquaporin 1aa from Anabas testudineus, climbing perch) (Anabas testudineus (climbing perch)); experiment: crystal structure; untagged-cpAQP1aa-243, hanging-drop vapor diffusion, 4°C; reservoir 100 mM Tris-HCl pH 7.8, 5% γ-PGA, 30% PEG400, D-sorbitol additive; space group P42_(1)2, one monomer in the asymmetric unit; 1.9 Å
[2] = target: untagged-cpAQP1aa-243 (C-terminally truncated aquaporin 1aa from Anabas testudineus, climbing perch) (Anabas testudineus (climbing perch)); experiment: crystal structure; untagged-cpAQP1aa-243, hanging-drop vapor diffusion, 4°C; reservoir 300 mM lithium sulfate, 100 mM ADA pH 6.5, 30% PEG400, dextran sulfate additive; space group C222_(1), four monomers in the asymmetric unit; 3.5 Å

untagged-cpAQP1aa-243 (C-terminally truncated aquaporin 1aa from Anabas testudineus, climbing perch) (domain or fragment)
stoichiometry N [1]: 4
stoichiometry N [2]: 4
